Measurements reported in patent US20240327804A1, “CONJUGATES AND METHODS OF USE THEREOF” (Regents of the University of Minnesota, priority 2023, published 2024).

Legend:
[1] = target: T1, epithelial cell adhesion molecule (EpCAM) on HT29-R cells (human, UniProt P16422 24-314); assay: flow cytometry, 0.5 µM fluorescein-labeled CSANs on HT29-R (EpCAM+) cells, 1 h at 4° C.
T1 construct: whole, on cells
T1 sequence (looked up): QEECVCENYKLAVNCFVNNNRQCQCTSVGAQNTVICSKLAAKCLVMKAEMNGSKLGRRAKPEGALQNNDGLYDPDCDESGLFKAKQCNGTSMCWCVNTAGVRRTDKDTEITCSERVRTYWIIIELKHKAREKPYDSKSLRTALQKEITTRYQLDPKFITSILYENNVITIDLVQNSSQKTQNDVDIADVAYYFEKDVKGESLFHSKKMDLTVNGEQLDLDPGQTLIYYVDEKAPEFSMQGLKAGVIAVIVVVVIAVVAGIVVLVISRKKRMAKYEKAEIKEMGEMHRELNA
Procedure: (§1) The binding specificity of the CSANs to the corresponding cellular receptors was studied by flow cytometry. A431-R cells were chosen as the EGFR⁺ cell line; SK-BR-3-R cells were chosen as the HER2⁺ cell line; HT-29-R cells were chosen as the EpCAM⁺ cell line; HT29-R cells were chosen as the CD133⁺ cell line. The cells were harvested and washed with DPBS buffer (Gibco, Cat: 14190144), and aliquots of […] were then resuspended in 100 μL of DPBS solutions containing 0.5 μM of fluorescein-labeled CSANs and incubated for 1 h at 4° C. The cells were then pelleted, washed, and resuspended in 0.5 mL of cold DPBS and analyzed using an LSR II flow cytometer (BD Biosciences) at the University Flow Cytometry Resource (UFCR). For the cell surface modification with farnesylated CSANs, the sender cells were collected from cell culture, pelleted at 350 g for 5 min, and washed with 1 mL DPBS. Aliquots of 10⁵ cells were then incubated in 100 μL of DPBS solutions containing the desired concentrations of fluorescein-labeled farnesylated CSANs for at least 1 h at room temperature with rotation and washed twice with 1 mL cold DPBS to remove unbound CSANs. The modified cells were then resuspended in 0.5 mL of cold DPBS and analyzed using an LSR II flow cytometer (BD Biosciences) at the University Flow Cytometry Resource (UFCR).

CD133+ HT29-R cells = assay: Binding of CSANs to CD133+ HT29-R cells by flow cytometry; conditions: fluorescein-labeled CSANs
Procedure: The Bangs beads (Bangs Laboratories, Cat: 815A) were collected and resuspended in PBS, and then stained with the fluorescently labeled antibody that detects the corresponding cell surface receptor (anti-EGFR-BV421, Biolegend, Cat: 352911; anti-HER2-BV421, Biolegend, Cat: 324420; anti-EpCAM-AF647, Biolegend, Cat: 118211) at 4° C. for >30 min, followed by wash steps. 100,000 of the cancer cells were collected and stained with the corresponding antibody at 4° C. for >30 min, followed by wash steps. The cells and beads were analyzed by flow cytometry. The calibration curve was generated based on the MFI of the beads and the corresponding antibody binding capacity of the beads. The receptor number was calculated based on the MFI of the cells stained with the antibody and the previously generated calibration curve. […]
The binding specificity of the CSANs to the corresponding cellular receptors was studied by flow cytometry. […] The cells were then pelleted, washed, and resuspended in 0.5 mL of cold DPBS and analyzed using an LSR II flow cytometer (BD Biosciences) at the University Flow Cytometry Resource (UFCR). […] The modified cells were then resuspended in 0.5 mL of cold DPBS and analyzed using an LSR II flow cytometer (BD Biosciences) at the University Flow Cytometry Resource (UFCR).

[2] = target: T2, epidermal growth factor receptor (EGFR) on A431-R / MDA-MB-231-R cells (human, UniProt P00533 25-1210); assay: flow cytometry, fluorescein-labeled CSANs on A431-R cells, 1 h at 4° C.
T2 construct: whole, on cells
Procedure: as §1

[3] = target: T1, epithelial cell adhesion molecule …; assay: flow cytometry, fluorescein-labeled CSANs on HT29-R cells, 1 h at 4° C.
Procedure: as §1

[4] = target: T3, human epidermal growth factor receptor 2 (HER2) on SK-BR-3-R cells (human, UniProt P04626 23-1255); assay: flow cytometry, fluorescein-labeled CSANs on SK-BR-3-R cells, 1 h at 4° C.
T3 construct: whole, on cells
Procedure: as §1

[5] = test system: receptor expressing target cells (A431-R, SK-BR-3-R, HT29-R); assay: Binding specificity of CSANs to cellular receptors by flow cytometry; conditions: unfarnesylated fluorescein-labeled CSANs, 0.5 μM, 1 h, 4° C.
Procedure: as §1, with “EGFR^+” for “EGFR⁺”, “HER2^+” for “HER2⁺”, “EpCAM^+” for “EpCAM⁺”, “CD133^+” for “CD133⁺”, “10^5” for “10⁵”

B1: unfarnesylated αEpCAM-Fn3 CSANs (αEpCAM-Fn3-DHFR^2-CVIA oligomerized by bisMTX) (designed binder)
chain: MDYKDDDDKASSSDSPRNLEVTNATPNSLTISWDNSNYASYYRITYGETGGNSPSQELTVPGSTYNATISGLKPGQDYIITVYAVTYRDNYSYSNLISINYRSEIDKPSQGSGGSGGGGSGGGGSGGGGSGGGGSGGGGSGGGGSGGGGSGGGGSGGELGGISLIAALAVDRVIGMENAMPWNLPADLAWFKRNTLNKPVIMGRHTWESIGRPLPGRKNIILSSQPGTDDRVTWVKSVDEAIAAAGDVPEIMVIGGGRVYEQFLPKAQKLYLTHIDAEVEGDTHFPDYEPDDWESVFSEFHDADAQNSHSYSFEILERRGGISLIAALAVDRVIGMENAMPWNLPADLAWFKRNTLNKPVIMGRHTWESIGRPLPGRKNIILSSQPGTDDRVTWVKSVDEAIAAAGDVPEIMVIGGGRVYEQFLPKAQKLYLTHIDAEVEGDTHFPDYEPDDWESVFSEFHDADAQNSHSYSFEILERRGGSGGGSGGHHHHHHGGSGGSGGKKKKKKTCVIA
modifications: Non-specific NHS-fluorescein label on amines; monomers joined non-covalently into a predominantly octameric ring by bisMTX; the letters give one monomer.
notes: Fn3-DHFR^2 fusion nanoring formed with bisMTX; 'predominantly octameric'; also called anti-EpCAM-C5-Fn-1DD-CVIA
Does B1 bind [1]?
Result: binds

B2: αCD133-scFv-DHFR^2 CSANs: fluorescein-labeled CSANs from αCD133-scFv-DHFR^2 protein (protein)
chain: MDIVLSQSPAIMSASPGEKVTISCSASSSVSYMYWYQQKPGSSPKPWIYRTSNLASGVPARFSGSGSGTSYSLTISSMEAEDAATYYCQQYHSYPPTFGAGTKLELKSSGGGGSGGGGGGSSRSSLEVKLVESGPELKKPGETVKISCKASGYTFTDYSMHWVNQAPGKGLKWMGWINTETGEPSYADDFKGRFAFSLETSASTAYLQINNLKNEDTATYFCATDYGDYFDYWGQGTTLTVSSELGGSGGGSGGGSGGMISLIAALAVDRVIGMENAMPWNLPADLAWFKRNTLNKPVIMGRHTWESIGRPLPGRKNIILSSQPGTDDRVTWVKSVDEAIAAAGDVPEIMVIGGGRVYEQFLPKAQKLYLTHIDAEVEGDTHFPDYEPDDWESVFSEFHDADAQNSHSYSFEILERRGMISLIAALAVDRVIGMENAMPWNLPADLAWFKRNTLNKPVIMGRHTWESIGRPLPGRKNIILSSQPGTDDRVTWVKSVDEAIAAAGDVPEIMVIGGGRVYEQFLPKAQKLYLTHIDAEVEGDTHFPDYEPDDWESVFSEFHDADAQNSHSYSFEILERRGGSGGGSGGGSGGDYKDDDDK
How did the “binding to HT29-R cells” value (CD133+ HT29-R cells) turn out when B2 was run?
The value was “specifically bind”.

B3: non-targeting DHFR^2-CVIA CSANs (other)
chain: GISLIAALAVDRVIGMENAMPWNLPADLAWFKRNTLNKPVIMGRHTWESIGRPLPGRKNIILSSQPGTDDRVTWVKSVDEAIAAAGDVPEIMVIGGGRVYEQFLPKAQKLYLTHIDAEVEGDTHFPDYEPDDWESVFSEFHDADAQNSHSYSFEILERRGGISLIAALAVDRVIGMENAMPWNLPADLAWFKRNTLNKPVIMGRHTWESIGRPLPGRKNIILSSQPGTDDRVTWVKSVDEAIAAAGDVPEIMVIGGGRVYEQFLPKAQKLYLTHIDAEVEGDTHFPDYEPDDWESVFSEFHDADAQNSHSYSFEILERRGGSGGSGGDYKDDDDKGGSGGSGGKKKKKKTCVIA
modifications: Non-specific NHS-fluorescein label on amines; monomers joined non-covalently into a predominantly octameric ring by bisMTX; the letters give one monomer.
notes: Control nanoring without targeting domain, unfarnesylated; 'predominantly octameric'
Does B3 bind [2]?
Result: no binding (tested: 0.5 µM)

Does B3 bind [3]?
Result: no binding (tested: 0.5 µM)

Does B3 bind [4]?
Result: no binding (tested: 0.5 µM)

B4: DHFR^2-CVIA CSANs: non-targeting unfarnesylated control CSANs from DHFR^2-CVIA protein (protein)
chain: GISLIAALAVDRVIGMENAMPWNLPADLAWFKRNTLNKPVIMGRHTWESIGRPLPGRKNIILSSQPGTDDRVTWVKSVDEAIAAAGDVPEIMVIGGGRVYEQFLPKAQKLYLTHIDAEVEGDTHFPDYEPDDWESVFSEFHDADAQNSHSYSFEILERRGGISLIAALAVDRVIGMENAMPWNLPADLAWFKRNTLNKPVIMGRHTWESIGRPLPGRKNIILSSQPGTDDRVTWVKSVDEAIAAAGDVPEIMVIGGGRVYEQFLPKAQKLYLTHIDAEVEGDTHFPDYEPDDWESVFSEFHDADAQNSHSYSFEILERRGGSGGSGGDYKDDDDKGGSGGSGGKKKKKKTCVIA
B4 was tested. Which “binding to receptor expressing target cells” value [5] did it give?
Its value is “no observable binding”.
